In the assay the target is T1, Full-length rat TRPV2 with a C-terminal 1D4 tag, reconstituted into MSP2N2 nanodiscs (rat), Q9WUD2.
T1 chain: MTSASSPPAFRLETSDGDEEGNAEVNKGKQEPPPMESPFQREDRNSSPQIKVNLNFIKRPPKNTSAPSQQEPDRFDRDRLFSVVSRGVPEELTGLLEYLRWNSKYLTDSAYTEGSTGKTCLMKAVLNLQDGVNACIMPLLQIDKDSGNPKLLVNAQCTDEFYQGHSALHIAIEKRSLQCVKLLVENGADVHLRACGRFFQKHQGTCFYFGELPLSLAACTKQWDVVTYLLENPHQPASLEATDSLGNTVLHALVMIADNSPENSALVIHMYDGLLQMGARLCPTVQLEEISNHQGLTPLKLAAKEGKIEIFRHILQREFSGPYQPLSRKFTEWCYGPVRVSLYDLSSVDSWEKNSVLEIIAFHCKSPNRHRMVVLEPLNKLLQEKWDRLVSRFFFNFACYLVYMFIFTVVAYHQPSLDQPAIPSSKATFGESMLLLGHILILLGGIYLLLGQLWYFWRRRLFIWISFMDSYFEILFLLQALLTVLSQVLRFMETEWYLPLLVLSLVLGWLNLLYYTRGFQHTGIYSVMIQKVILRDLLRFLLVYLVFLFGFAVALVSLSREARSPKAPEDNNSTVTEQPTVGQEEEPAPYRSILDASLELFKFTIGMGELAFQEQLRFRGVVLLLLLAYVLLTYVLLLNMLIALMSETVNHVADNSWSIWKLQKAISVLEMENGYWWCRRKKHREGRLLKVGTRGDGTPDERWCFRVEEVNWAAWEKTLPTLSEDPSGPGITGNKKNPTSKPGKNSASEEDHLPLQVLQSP
The assay is described as follows: cryo-EM structure; rTRPV2 in MSP2N2/soy polar lipid nanodiscs; apo dataset at pH 8 (states Apo1, Apo2, Apo3) and dataset with 30 mM sodium acetate at final pH 5.0 (TRPV2_HOAc); grids prepared at 4 °C; maps refined with C4 symmetry. The conditions noted are these: remark: other sources report otherwise.

B1: Full-length rat TRPV2 with a C-terminal 1D4 tag, reconstituted into MSP2N2 nanodiscs, Q9WUD2 1-761 (natural protein)
chain: MTSASSPPAFRLETSDGDEEGNAEVNKGKQEPPPMESPFQREDRNSSPQIKVNLNFIKRPPKNTSAPSQQEPDRFDRDRLFSVVSRGVPEELTGLLEYLRWNSKYLTDSAYTEGSTGKTCLMKAVLNLQDGVNACIMPLLQIDKDSGNPKLLVNAQCTDEFYQGHSALHIAIEKRSLQCVKLLVENGADVHLRACGRFFQKHQGTCFYFGELPLSLAACTKQWDVVTYLLENPHQPASLEATDSLGNTVLHALVMIADNSPENSALVIHMYDGLLQMGARLCPTVQLEEISNHQGLTPLKLAAKEGKIEIFRHILQREFSGPYQPLSRKFTEWCYGPVRVSLYDLSSVDSWEKNSVLEIIAFHCKSPNRHRMVVLEPLNKLLQEKWDRLVSRFFFNFACYLVYMFIFTVVAYHQPSLDQPAIPSSKATFGESMLLLGHILILLGGIYLLLGQLWYFWRRRLFIWISFMDSYFEILFLLQALLTVLSQVLRFMETEWYLPLLVLSLVLGWLNLLYYTRGFQHTGIYSVMIQKVILRDLLRFLLVYLVFLFGFAVALVSLSREARSPKAPEDNNSTVTEQPTVGQEEEPAPYRSILDASLELFKFTIGMGELAFQEQLRFRGVVLLLLLAYVLLTYVLLLNMLIALMSETVNHVADNSWSIWKLQKAISVLEMENGYWWCRRKKHREGRLLKVGTRGDGTPDERWCFRVEEVNWAAWEKTLPTLSEDPSGPGITGNKKNPTSKPGKNSASEEDHLPLQVLQSP
Take B1: the stoichiometry N was determined as 4.

The values above are taken from paper PMC11148119.
